In PMC11919277:
Each block holds one substance with its values, some of them ahead of it.

Assays:
Assay in all cases: co-immunoprecipitation (anti-HA agarose beads), western blot, ImageJ densitometry
Settings in all cases: three independent experiments; parent: est. 0.97; read off a plot
[1] = target: WT-Bmal1a, HA-tagged (zebrafish Bmal1a, wild type)
[2] = target: Bmal1a-mut, HA-tagged (zebrafish Bmal1a with the four cetacean-specific BMAL1 mutations)
[3] = target: WT-Clocka, FLAG-tagged (zebrafish Clocka, wild type)

ratio to parent [1]: 1.6
Substance: WT-Clocka, FLAG-tagged (zebrafish Clocka, wild type) M724V; S752P; T779A

ratio to parent [2]: 1.6
Substance: m1; m3 Clocka: M724V; S752P; T779A; Bmal1a: D3E; L456P; H461R; M466T

ratio to parent [3]: 1.2
Substance: WT-Bmal1a, HA-tagged (zebrafish Bmal1a, wild type) D3E; L456P; H461R; M466T
